From patent US20040241689A1 (published 2004)

Molecular target: T1, human plasma fibronectin (human, UniProt P02751 32-2296)
T1 construct: Bought (Sigma); used in solution for ligand blots, coated on microtitre wells, or coupled to Sepharose; also called Fn; human Fn
Experiment: ELISA, recombinant protein titrated on immobilized human Fn (100 ng/well), detected with antiserum

T1 sequence (P02751 other isoform, or with tags, fused parts or gaps limits assumed): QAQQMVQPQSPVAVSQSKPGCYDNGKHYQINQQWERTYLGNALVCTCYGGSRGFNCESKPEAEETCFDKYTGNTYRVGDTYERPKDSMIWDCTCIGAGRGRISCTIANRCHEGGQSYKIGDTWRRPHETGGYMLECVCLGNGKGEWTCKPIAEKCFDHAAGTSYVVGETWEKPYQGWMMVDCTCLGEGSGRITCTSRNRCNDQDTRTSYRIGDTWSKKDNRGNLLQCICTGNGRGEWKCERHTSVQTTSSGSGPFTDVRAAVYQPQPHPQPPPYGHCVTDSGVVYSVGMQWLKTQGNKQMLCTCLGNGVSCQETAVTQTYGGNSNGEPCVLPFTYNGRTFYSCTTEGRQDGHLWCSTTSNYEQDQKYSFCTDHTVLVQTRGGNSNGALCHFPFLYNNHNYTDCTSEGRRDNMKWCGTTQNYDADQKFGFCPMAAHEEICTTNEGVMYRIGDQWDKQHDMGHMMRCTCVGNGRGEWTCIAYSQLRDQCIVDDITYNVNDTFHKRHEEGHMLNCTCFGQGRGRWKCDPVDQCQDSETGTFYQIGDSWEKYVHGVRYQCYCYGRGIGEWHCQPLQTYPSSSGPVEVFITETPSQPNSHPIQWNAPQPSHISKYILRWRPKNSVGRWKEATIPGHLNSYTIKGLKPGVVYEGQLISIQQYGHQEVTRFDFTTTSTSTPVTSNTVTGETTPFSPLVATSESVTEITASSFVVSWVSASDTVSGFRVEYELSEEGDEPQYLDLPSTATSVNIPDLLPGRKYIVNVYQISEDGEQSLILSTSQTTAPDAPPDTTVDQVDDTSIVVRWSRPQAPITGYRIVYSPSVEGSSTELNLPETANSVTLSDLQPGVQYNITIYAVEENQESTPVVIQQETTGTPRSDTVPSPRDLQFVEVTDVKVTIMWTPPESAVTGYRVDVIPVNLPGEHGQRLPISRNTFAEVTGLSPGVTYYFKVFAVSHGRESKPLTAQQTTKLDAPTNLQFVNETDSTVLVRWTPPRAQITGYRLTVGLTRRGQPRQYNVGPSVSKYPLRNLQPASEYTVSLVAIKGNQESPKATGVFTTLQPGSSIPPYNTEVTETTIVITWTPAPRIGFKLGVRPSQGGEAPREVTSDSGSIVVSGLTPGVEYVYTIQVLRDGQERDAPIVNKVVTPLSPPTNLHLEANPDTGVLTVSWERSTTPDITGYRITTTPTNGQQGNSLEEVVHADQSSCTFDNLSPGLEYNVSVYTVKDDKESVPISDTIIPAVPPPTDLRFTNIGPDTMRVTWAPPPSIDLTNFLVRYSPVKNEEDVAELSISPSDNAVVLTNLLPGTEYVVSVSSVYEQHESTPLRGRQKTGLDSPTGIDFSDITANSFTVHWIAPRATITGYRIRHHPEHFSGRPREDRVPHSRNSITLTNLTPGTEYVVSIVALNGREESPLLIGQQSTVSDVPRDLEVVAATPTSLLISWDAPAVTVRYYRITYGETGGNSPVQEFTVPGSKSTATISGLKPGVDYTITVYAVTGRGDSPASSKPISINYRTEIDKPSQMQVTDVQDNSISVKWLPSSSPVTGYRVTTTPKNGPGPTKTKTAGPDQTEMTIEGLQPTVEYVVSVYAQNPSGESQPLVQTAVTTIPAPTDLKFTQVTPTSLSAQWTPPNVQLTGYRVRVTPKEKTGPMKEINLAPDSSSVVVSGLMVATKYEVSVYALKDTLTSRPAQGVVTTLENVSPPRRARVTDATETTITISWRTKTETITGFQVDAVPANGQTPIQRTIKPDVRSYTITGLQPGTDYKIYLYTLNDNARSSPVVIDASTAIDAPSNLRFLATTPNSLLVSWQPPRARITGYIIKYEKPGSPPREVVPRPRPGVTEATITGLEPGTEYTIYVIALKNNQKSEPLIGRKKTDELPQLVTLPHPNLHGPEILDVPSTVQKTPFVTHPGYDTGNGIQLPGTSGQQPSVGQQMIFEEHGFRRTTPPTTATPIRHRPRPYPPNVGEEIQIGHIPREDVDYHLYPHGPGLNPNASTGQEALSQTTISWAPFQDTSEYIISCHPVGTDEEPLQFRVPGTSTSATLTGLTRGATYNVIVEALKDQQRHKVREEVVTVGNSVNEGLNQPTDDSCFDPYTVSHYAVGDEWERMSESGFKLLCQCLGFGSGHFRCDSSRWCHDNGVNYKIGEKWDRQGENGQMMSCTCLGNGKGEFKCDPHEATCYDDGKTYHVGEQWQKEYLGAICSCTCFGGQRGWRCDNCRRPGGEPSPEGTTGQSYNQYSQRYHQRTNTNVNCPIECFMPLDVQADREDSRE

B1: recombinant NPDH (His10-NPDH-B), amino acids 1-244 of Mycoplasma pneumoniae pyruvate dehydrogenase E1 beta subunit (other)
chain: MSKTIQANNIEALGNAMDLALERDPNVVLYGQDAGFEGGVFRATKGLQKKYGEERVWDCPIAEAAMAGIGVGAAIGGLKPIVEIQFSGFSFPAMFQIFTHAARIRNRSRGVYTCPIIVRMPMGGGIKALEHHSETLEAIYGQIAGLKTVMPSNPYDTKGLFLAAVESPDPVVFFEPKKLYRAFRQEIPADYYTVPIGQANLISQGNNLTIVSYGPTMFDLINMVYGGELKDKGIELIDLRTISP
Kd: 0.075 µg/mL
